Legend:
[1] = system: brain hemispheres and organs; experiment: Ex vivo biodistribution of ^89Zr-BVDFO after OBBBO (Example 1); parameters: species or system mice; settings: mouse
Procedure: On completion of PET/CT after infusion of ^89Zr-BVDFO, the mice were euthanized and left and right brain hemispheres, heart, lungs, liver, spleen, kidneys, and blood were harvested, weighed using Mettler Toledo […] Balance and radioactivity of each was measured using CRC®[…] Dose Calibrator and Well Counter, Mirion Technologies. To calculate the percentage injected dose per […] of tissue (% ID/g), first, the radioactivity present in the syringe after injection was measured and subtracted from initial measurement before injection to calculate the total injected dose. Then, the percentage of each organ's radioactivity measurement relative to the total injected dose was calculated and divided by the weight of the organ. The biodistribution data shown are mean % ID/g+SE.

[2] = system: brain hemispheres; parameters: species or system mice; settings: mouse
Procedure: A catheter was placed into the right internal carotid artery (ICA) in 14 male C57BL6 mice for intra-arterial (IA) injections. […] To confirm OBBBO, Gadolinium-enhanced T1 MRI was conducted, and safety was confirmed through subsequent serial MRI over 1-2 weeks.

[3] = system: head and neck region; parameters: species or system mice; settings: mouse, in vivo
Procedure: Radiolabeled bevacizumab (Zr 89-bevacizumab) was administered via both IA and IV routes. […] Ex vivo measurements of drug biodistribution across various organs further corroborated these findings, quantifying radioactivity in specific tissues such as the skin, salivary glands, tongue, and jaw muscle (FIG. 7e). The method comprised pretreatment with composition comprising a hyperosmotic agent, stopping the pretreatment administration, and then administrating the radiolabeled bevacizumab. Without being bound by theory, it is believed that to enhance drug delivery, the pretreatment with the hyperosmotic agent would extract water from the tissue (local dehydration), followed by rapid rehydration upon cessation of the hyperosmotic infusion. This process was expected to improve the transition of the intra-arterially administered drug from the vascular compartment to the parenchymal tissues, thereby increasing drug accumulation in the targeted areas.

[4] = system: brain; settings: mouse, in vivo
Source text: In experiment 2, IA injections of antibodies suspended in 0.9% NaCl were comparted to IA injections of antibodies suspended in serum. PET imaging and post-mortem antibody biodistribution were used as outcome measures.

[5] = system: brain hemispheres; settings: mouse, in vivo
Procedure: Then, monoclonal antibody (mAb) bevacizumab was conjugated to deferoxamine (DFO) and the conjugate was radiolabeled with zirconium-89 (^89Zr). OBBBO was performed using 25% mannitol or 4% NaCl in 25% mannitol, followed by intraarterial (IA) injection of the radiolabeled mAb and positron-emission tomography (PET) imaging to assess the distribution of the mAb. The percentages of injected dose per cubic centimeter of tissue (% ID/g) and standardized uptake values (SUV) were calculated for selected organs and regions.
Approximately 7.5 MBq (˜202 μCi) of ^89Zr-BVDFO reconstituted in 0.2 mL of saline was infused intraarterially at a speed of 0.15 mL/min and each animal was transferred to the PET/CT scanner. […] Regions of interest (ROIs), including right and left brain hemispheres, heart, lungs, and liver, were demarcated in the axial plane, and standardized uptake values (SUV) were calculated using the Fiji ImageJ PET/CT plugin.
Linear mixed modeling with restricted maximum likelihood (REML) method was performed using ‘Imer’ package, with % ID/g or SUVmean or SUVmax as a dependent variable, organs and BBBO type as fixed effects and mouse ID as a random effect. Estimated marginal means were calculated using ‘emmeans’ package for organ and BBBO interactions, and p-values for pairwise comparisons were extracted.

Substance: ^89Zr-BVDFO: monoclonal antibody bevacizumab (Avastin) conjugated to deferoxamine (DFO) and radiolabeled with zirconium-89
- uptake in the blood, lungs, spleen, liver, and kidneys [1]: high uptake
- ex vivo biodistribution, accumulation in the ipsilateral hemisphere [2]: confirmed by ex vivo biodistribution
- standardized uptake values (SUV), accumulation in the ipsilateral hemisphere ([2]; in vivo): substantial accumulation
- antibody uptake in the head and neck region, IA compared to IV [3]: significantly higher
- CNS penetration, antibodies suspended in 0.9% NaCl vs suspended in serum [4]: much higher
- antibody penetration to the brain, IA vs IV ([4]; iv): much higher
- accumulation of radioactivity in the ipsilateral hemisphere [5]: substantial accumulation
